Source: paper PMC2917274, “Structure of Staphylococcus aureus adenylosuccinate lyase (PurB) and assessment of its potential as a target for structure-based inhibitor discovery” (Acta Crystallographica Section D: Biological Crystallography, 2010)

Legend:
SaPurB = molecular target: T1, SaPurB (Staphylococcus aureus, UniProt Q7A0G9); assay: X-ray crystal structure, […] Å; format: binding; conditions: co-crystallized with 25 mM AMP, pH 6.2, 293 K; active site; oxalate tentatively modelled nearby
T1 construct: gene purB; full length (domains described over residues 1-431); N-terminal His tag removed by TEV protease (modified pET15b); expressed in E. coli BL21(DE3) pLysS; dimer in gel filtration, homotetramer in crystal, each active site from three subunits
T1 sequence (Q7A0G9 1-431): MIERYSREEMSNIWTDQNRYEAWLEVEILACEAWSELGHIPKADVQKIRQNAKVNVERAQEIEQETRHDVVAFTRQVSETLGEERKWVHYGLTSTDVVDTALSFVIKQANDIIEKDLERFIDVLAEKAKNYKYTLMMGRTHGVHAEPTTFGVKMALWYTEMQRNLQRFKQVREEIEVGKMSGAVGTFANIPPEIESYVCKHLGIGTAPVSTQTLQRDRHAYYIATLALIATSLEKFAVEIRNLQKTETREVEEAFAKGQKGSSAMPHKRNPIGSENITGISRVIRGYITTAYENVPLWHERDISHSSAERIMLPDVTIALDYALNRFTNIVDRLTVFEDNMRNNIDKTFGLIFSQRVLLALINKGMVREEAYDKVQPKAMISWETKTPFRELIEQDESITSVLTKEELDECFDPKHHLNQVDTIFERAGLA

[1] = molecular target: the molecule itself; assay: SEC; Superdex 200 26/60, 50 mM Tris-HCl, 250 mM NaCl pH 7.5, column calibrated with molecular-weight standards; final stage of purification
[2] = molecular target: the molecule itself; assay: crystal structure; 2.5 A, space group I222, one chain per asymmetric unit, tetramer built by crystallographic twofold axes; with AMP and oxalate; crystals at 293 K from 45% PEG 200, 0.2 M NaCl, 0.1 M sodium phosphate pH 6.2

Molecule: Nc1ncnc2c1ncn2[C@@H]1O[C@H](COP(=O)(O)O)[C@@H](O)[C@H]1O [AMP]
- X-ray crystal structure, 2.5 Å (SaPurB): The structure of AMP in the active site of SaPurB

B1: Staphylococcus aureus adenylosuccinate lyase (PurB) (enzyme, UniProt Q2FFI7 1-431, looked up)
chain: T1 sequence (Q7A0G9 1-431)
notes: domains I-III span residues 1-431; theoretical subunit mass 49.6 kDa; Vector pET15b changed to carry a TEV site in place of the thrombin site; Dimer by gel filtration, tetramer in the crystal; also called SaPurB
- stoichiometry N [1]: 2
- stoichiometry N [2]: 4
